Reference: patent publication US20200199213A1 (Eli Lilly, published 2020)
Substitutions are numbered along the chain they refer to. Numbers in names are those of the source.

B1: Ab with LC variant having a D31S mutation (SEQ ID NO:21) and a HC of SEQ ID NO:6 (antibody, human IgG4 S228P, kappa, F234A L235A, V domains shown)
VH: QVTLKESGPTLVKPTQTLTLTCTFSGFSLSISGVGVGWIRQPPGKALEWLALIYRNDDKRYSPSLKSRLTITKDTSKNQVVLTLTNMDPVDTATYYCARTYSSGWYGNWFDPWGQGTLVTVSS
VL: DIVMTQTPLSLPVTPGEPASISCRSSQSLLSSDDGNTYLDWYLQKPGQSPQLLIYMLSYRASGVPDRFSGSGSGTDFTLKISRVEAEDVGIYYCMQRIEFPLTFGGGTKVEIKR
notes: also called D31S Variant Ab; D31S Ab
B2: Ab with LC variant having a D33A mutation (SEQ ID NO:22) and a HC of SEQ ID NO:6 (antibody, human IgG4 S228P, kappa, F234A L235A, V domains shown)
VH: B1 VH
VL: B1 VL with S31D, D33A
notes: also called D33A Variant Ab; D33A Ab
B3: Ab with LC variant having a E99Q mutation (SEQ ID NO:25) and a HC of SEQ ID NO:6 (antibody, human IgG4 S228P, kappa, F234A L235A, V domains shown)
VH: B1 VH
VL: B1 VL with S31D, E99Q
notes: also called E99Q Variant Ab; E99Q Ab
B4: anti-ANGPTL3/8 complex Ab having a LC of SEQ ID NO:5 and a HC of SEQ ID NO:6 (antibody, human IgG4 S228P, kappa, F234A L235A, V domains shown)
VH: B1 VH
VL: B1 VL with S31D
notes: In the ELISA assays tested as IgG from CHO supernatants; also called the Ab

Molecular target: T1, human ANGPTL3/8 complex (human, UniProt Q9Y5C1 17-460; Q6UXH0 22-198, limits assumed)
T1 sequence 1: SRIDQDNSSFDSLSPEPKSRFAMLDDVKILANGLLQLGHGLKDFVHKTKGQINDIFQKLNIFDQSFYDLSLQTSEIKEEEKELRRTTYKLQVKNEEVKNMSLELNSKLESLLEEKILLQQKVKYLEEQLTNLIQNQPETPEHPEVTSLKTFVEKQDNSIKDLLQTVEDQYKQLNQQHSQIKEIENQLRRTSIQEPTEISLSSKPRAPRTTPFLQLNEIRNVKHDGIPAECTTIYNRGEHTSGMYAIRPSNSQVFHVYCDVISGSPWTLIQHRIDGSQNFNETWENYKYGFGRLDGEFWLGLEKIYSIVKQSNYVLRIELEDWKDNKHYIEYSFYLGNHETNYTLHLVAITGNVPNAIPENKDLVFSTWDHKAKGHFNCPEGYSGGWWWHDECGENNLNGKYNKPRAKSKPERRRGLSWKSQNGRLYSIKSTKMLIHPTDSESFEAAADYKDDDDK
T1 sequence 2: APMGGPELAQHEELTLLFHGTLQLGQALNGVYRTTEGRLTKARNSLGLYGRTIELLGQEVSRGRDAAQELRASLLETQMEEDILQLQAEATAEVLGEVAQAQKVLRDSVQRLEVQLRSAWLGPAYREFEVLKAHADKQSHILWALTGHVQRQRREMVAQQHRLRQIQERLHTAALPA
Test: cell-based or functional assay

**Q.** Which “% Max Derepression LPL” value does the source give for B1 here?
**A.** The value was 106%.

**Q.** What about the “Ab EC50 (nM), derepression of LPL” value of the same binder?
**A.** Its value is 0.86 nM.

**Q.** With B2 as the binder, how does the “% Max Derepression LPL” value read?
**A.** The value was 103%.

**Q.** And the “Ab EC50 (nM), derepression of LPL” value?
**A.** The value was 1.14 nM.

**Q.** For B3, which “% Max Derepression LPL” value is on record?
**A.** Its value is 106%.

**Q.** And the “Ab EC50 (nM), derepression of LPL” value?
**A.** The value was 0.49 nM.

Molecular target: T2, mouse ANGPTL3/8 complex (mouse, UniProt Q9R182 17-455; Q8R1L8 16-198, limits assumed)
T2 sequence (looked up) 1: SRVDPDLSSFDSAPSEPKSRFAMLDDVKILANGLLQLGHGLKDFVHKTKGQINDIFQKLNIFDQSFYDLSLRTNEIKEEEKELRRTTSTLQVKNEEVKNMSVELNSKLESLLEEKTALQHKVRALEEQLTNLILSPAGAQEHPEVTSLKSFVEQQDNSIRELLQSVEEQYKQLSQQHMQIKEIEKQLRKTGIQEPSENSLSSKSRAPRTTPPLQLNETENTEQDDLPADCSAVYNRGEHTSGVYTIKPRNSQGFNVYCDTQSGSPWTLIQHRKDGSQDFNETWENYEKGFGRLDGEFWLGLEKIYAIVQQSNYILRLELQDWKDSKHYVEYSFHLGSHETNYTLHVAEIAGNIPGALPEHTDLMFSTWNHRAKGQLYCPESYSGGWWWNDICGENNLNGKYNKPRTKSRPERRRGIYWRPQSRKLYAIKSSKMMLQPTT
T2 sequence (looked up) 2: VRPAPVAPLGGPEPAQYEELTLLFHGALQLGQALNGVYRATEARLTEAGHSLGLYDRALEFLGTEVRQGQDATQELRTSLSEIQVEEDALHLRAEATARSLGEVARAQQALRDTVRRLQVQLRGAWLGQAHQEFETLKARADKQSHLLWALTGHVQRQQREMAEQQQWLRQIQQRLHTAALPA
Test: cell-based or functional assay

**Q.** Which results are given for B1?
**A.** % Max Derepression LPL: 110%; Ab EC50 (nM), derepression of LPL: 1.79 nM

**Q.** Which results are given for B2?
**A.** % Max Derepression LPL: 106%; Ab EC50 (nM), derepression of LPL: 4.07 nM

**Q.** What does the source list for B3?
**A.** % Max Derepression LPL: 110%; Ab EC50 (nM), derepression of LPL: 1.65 nM

Molecular target: T1, human ANGPTL3/8 complex
Test: ELISA; Ab captured by anti-human Fc; biotinylated antigen at 3.70 nM
Description: (§1) ELISA Assay: Ab binding selectivity to either the ANGPTL3/8 complex, free ANGPTL3 or free ANGPTL8 is verified using standard ELISA assays. […] Ab from CHO supernatants after expression in CHO cells is then captured to the assay plate and results is an Ab concentration of 2 μg/ml. Biotinylated antigen (ANGPTL3, ANGPTL8 or ANGPTL3/8 complex) is added at varying concentrations by serial dilution to allow for Ab/antigen binding. Ab/antigen complexes are detected after the addition of alkaline phosphatase-conjugated neutravidin, and alkaline phosphatase substrate, and subsequent measurement of the optical density at 560 nm.

**Q.** B4 was tested. Which “OD at 560 nm” value did it give?
**A.** Its value is 1.04 OD 560 nm.

**Q.** B1 was tested. Which “OD at 560 nm” value did it give?
**A.** The value was 1.13 OD 560 nm.

**Q.** B2 was tested. Which “OD at 560 nm” value did it give?
**A.** The value was 1.04 OD 560 nm.

**Q.** How did the “OD at 560 nm” value turn out when B3 was run?
**A.** The value was 1.13 OD 560 nm.

Molecular target: T3, human ANGPTL8 (human, UniProt Q6UXH0 22-198)
T3 construct: Biotinylated in the ELISA assays; also called hANGPTL8; free ANGPTL8
T3 sequence: T1 sequence 2
Test: as above
Description: as §1

**Q.** B4 was tested. Which “OD at 560 nm” value did it give?
**A.** Its value is 0.051 OD 560 nm.

**Q.** How did the “OD at 560 nm” value turn out when B1 was run?
**A.** Its value is 0.056 OD 560 nm.

**Q.** B2 was tested. Which “OD at 560 nm” value did it give?
**A.** Its value is 0.048 OD 560 nm.

**Q.** With B3 as the binder, how does the “OD at 560 nm” value read?
**A.** Its value is 0.056 OD 560 nm.

Molecular target: T4, human ANGPTL3 (human, UniProt Q9Y5C1 17-460)
T4 construct: Biotinylated in the ELISA assays; also called hANGPTL3; free ANGPTL3
T4 sequence: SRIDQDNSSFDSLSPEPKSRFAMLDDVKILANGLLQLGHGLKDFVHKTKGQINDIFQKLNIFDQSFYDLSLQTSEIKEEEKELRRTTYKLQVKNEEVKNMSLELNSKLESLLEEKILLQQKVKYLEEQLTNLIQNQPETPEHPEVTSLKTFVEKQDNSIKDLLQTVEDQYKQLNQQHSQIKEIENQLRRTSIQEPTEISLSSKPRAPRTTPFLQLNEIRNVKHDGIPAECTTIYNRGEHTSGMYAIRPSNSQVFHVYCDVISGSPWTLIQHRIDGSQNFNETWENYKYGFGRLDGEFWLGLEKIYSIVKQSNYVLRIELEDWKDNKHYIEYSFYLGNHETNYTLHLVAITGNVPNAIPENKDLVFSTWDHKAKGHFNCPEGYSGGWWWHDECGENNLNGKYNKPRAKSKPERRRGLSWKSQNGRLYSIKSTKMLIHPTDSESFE
Test: as above
Description: as §1

**Q.** How did the “OD at 560 nm” value turn out when B4 was run?
**A.** Its value is 0.046 OD 560 nm.

**Q.** Which “OD at 560 nm” value does the source give for B1 here?
**A.** Its value is 0.06 OD 560 nm.

**Q.** How did the “OD at 560 nm” value turn out when B2 was run?
**A.** The value was 0.056 OD 560 nm.

**Q.** For B3, which “OD at 560 nm” value is on record?
**A.** The value was 0.06 OD 560 nm.

Molecular target: T1, human ANGPTL3/8 complex
Test: ELISA; Ab captured by anti-human Fc; biotinylated antigen at 33.3 nM
Description: as §1

**Q.** With B4 as the binder, how does the “OD at 560 nm” value read?
**A.** Its value is 2.41 OD 560 nm.

**Q.** How did the “OD at 560 nm” value turn out when B1 was run?
**A.** Its value is 2.23 OD 560 nm.

**Q.** Which “OD at 560 nm” value does the source give for B2 here?
**A.** The value was 2.18 OD 560 nm.

**Q.** For B3, which “OD at 560 nm” value is on record?
**A.** The value was 2.23 OD 560 nm.

Molecular target: T3, human ANGPTL8
Test: as above
Description: as §1

**Q.** B4 was tested. Which “OD at 560 nm” value did it give?
**A.** The value was 0.05 OD 560 nm.

**Q.** B1 was tested. Which “OD at 560 nm” value did it give?
**A.** Its value is 0.063 OD 560 nm.

**Q.** Which “OD at 560 nm” value does the source give for B2 here?
**A.** The value was 0.049 OD 560 nm.

**Q.** Which “OD at 560 nm” value does the source give for B3 here?
**A.** The value was 0.063 OD 560 nm.

Molecular target: T4, human ANGPTL3
Test: as above
Description: as §1

**Q.** For B4, which “OD at 560 nm” value is on record?
**A.** Its value is 0.052 OD 560 nm.

**Q.** B1 was tested. Which “OD at 560 nm” value did it give?
**A.** The value was 0.069 OD 560 nm.

**Q.** B2 was tested. Which “OD at 560 nm” value did it give?
**A.** Its value is 0.067 OD 560 nm.

**Q.** Which “OD at 560 nm” value does the source give for B3 here?
**A.** Its value is 0.069 OD 560 nm.

Molecular target: T1, human ANGPTL3/8 complex
Test: ELISA; Ab captured by anti-human Fc; biotinylated antigen at 0.412 nM
Description: as §1

**Q.** Which “OD at 560 nm” value does the source give for B4 here?
**A.** Its value is 0.231 OD 560 nm.

**Q.** B1 was tested. Which “OD at 560 nm” value did it give?
**A.** The value was 0.234 OD 560 nm.

**Q.** Which “OD at 560 nm” value does the source give for B2 here?
**A.** The value was 0.196 OD 560 nm.

**Q.** For B3, which “OD at 560 nm” value is on record?
**A.** Its value is 0.234 OD 560 nm.

Molecular target: T3, human ANGPTL8
Test: as above
Description: as §1

**Q.** Which “OD at 560 nm” value does the source give for B4 here?
**A.** Its value is 0.046 OD 560 nm.

**Q.** Which “OD at 560 nm” value does the source give for B1 here?
**A.** The value was 0.062 OD 560 nm.

**Q.** With B2 as the binder, how does the “OD at 560 nm” value read?
**A.** The value was 0.047 OD 560 nm.

**Q.** With B3 as the binder, how does the “OD at 560 nm” value read?
**A.** Its value is 0.062 OD 560 nm.

Molecular target: T4, human ANGPTL3
Test: as above
Description: as §1

**Q.** B4 was tested. Which “OD at 560 nm” value did it give?
**A.** The value was 0.043 OD 560 nm.

**Q.** Which “OD at 560 nm” value does the source give for B1 here?
**A.** Its value is 0.058 OD 560 nm.

**Q.** Which “OD at 560 nm” value does the source give for B2 here?
**A.** The value was 0.056 OD 560 nm.

**Q.** For B3, which “OD at 560 nm” value is on record?
**A.** Its value is 0.058 OD 560 nm.
